Source: US20190233494A1 (Sanofi, published 2019)
Blank lines part the entries; values can stand above or below the binder they belong to. Starred links: 1 amine or outer side, 2 acyl side, 3 side chain; linkers in the order of their positions; H or OH if unused. Non-standard residues stand in square brackets, D forms with d. Groups on a side chain read outwards from the residue. *: point of attachment. TTDS = 4-[3-[2-[2-(3-aminopropoxy)ethoxy]ethoxy]propylamino]-4-oxo-butanoyl; γGlu = O=C(O)[C@H](CCC(=O)[*:2])N[*:1]; Stearoyl = CCCCCCCCCCCCCCCCCC(=O)*; Palmitoyl = CCCCCCCCCCCCCCCC(=O)*; AEEA = NCCOCCOCC(=O)O; Aib = CC(C)(N)C(=O)O

Biological target: T1, RXFP1 receptor (endogenous, on OVCAR5 cells) (UniProt Q9HBX9 1-757, limits assumed)
T1 sequence (looked up): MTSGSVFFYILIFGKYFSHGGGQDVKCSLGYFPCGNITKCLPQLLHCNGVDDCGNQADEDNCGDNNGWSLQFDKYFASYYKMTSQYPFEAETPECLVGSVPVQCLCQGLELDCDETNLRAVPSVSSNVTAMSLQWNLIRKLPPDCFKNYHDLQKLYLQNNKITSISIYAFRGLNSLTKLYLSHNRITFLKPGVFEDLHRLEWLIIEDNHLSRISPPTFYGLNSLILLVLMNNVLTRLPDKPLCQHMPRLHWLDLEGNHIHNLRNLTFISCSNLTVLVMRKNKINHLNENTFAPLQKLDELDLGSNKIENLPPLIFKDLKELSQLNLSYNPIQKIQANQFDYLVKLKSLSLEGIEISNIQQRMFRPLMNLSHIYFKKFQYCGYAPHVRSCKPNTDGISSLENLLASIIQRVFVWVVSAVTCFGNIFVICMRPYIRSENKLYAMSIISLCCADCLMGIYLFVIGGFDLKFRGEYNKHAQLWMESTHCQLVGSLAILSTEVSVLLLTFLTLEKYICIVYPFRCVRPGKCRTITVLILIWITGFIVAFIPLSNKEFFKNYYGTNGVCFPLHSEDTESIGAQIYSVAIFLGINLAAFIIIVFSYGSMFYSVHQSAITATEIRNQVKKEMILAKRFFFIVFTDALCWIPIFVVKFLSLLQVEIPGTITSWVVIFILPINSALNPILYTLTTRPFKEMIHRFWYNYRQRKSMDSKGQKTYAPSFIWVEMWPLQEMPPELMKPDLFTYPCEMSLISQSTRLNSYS
Assay: cell-based or functional assay

EC50 (nM), OVCAR 5 cells (cAMP): 1.54 nM
EMax, OVCAR 5 cells (cAMP): 92%
B1: peptide of SEQ ID NO: 18 (peptide)
peptide: Ac-LEGREKVRAK(Ac)I[Aib][Aib]EGK([TTDS-TTDS-γGlu-γGlu-γGlu-Palmitoyl])STWS[dK]RKK(Ac)-NH2

EC50 (nM), OVCAR 5 cells (cAMP): 0.15 nM
EMax, OVCAR 5 cells (cAMP): 96%
B2: peptide of SEQ ID NO: 20 (peptide)
peptide: Ac-LEGREKVRAK(Ac)I[Aib][Aib]EGK([TTDS-TTDS-TTDS-γGlu-γGlu-γGlu-Stearoyl])STWS[Aib]RKK(Ac)-NH2

EC50 (nM), OVCAR 5 cells (cAMP): 11.5 nM
EMax, OVCAR 5 cells (cAMP): 94%
B3: peptide of SEQ ID NO: 19 (peptide)
peptide: Ac-LEGREKVRAK(Ac)I[Aib][Aib]EGK([AEEA-AEEA-AEEA-γGlu-γGlu-γGlu-Palmitoyl])STWS[Aib]RKK(Ac)-NH2
SMILES: CCCCCCCCCCCCCCCC(=O)N[C@@H](CCC(=O)N[C@@H](CCC(=O)N[C@@H](CCC(=O)NCCOCCOCC(=O)NCCOCCOCC(=O)NCCOCCOCC(=O)NCCCC[C@H](NC(=O)CNC(=O)[C@H](CCC(=O)O)NC(=O)C(C)(C)NC(=O)C(C)(C)NC(=O)[C@@H](NC(=O)[C@H](CCCCNC(C)=O)NC(=O)[C@H](C)NC(=O)[C@H](CCCNC(=N)N)NC(=O)[C@@H](NC(=O)[C@H](CCCCN)NC(=O)[C@H](CCC(=O)O)NC(=O)[C@H](CCCNC(=N)N)NC(=O)CNC(=O)[C@H](CCC(=O)O)NC(=O)[C@H](CC(C)C)NC(C)=O)C(C)C)[C@@H](C)CC)C(=O)N[C@@H](CO)C(=O)N[C@H](C(=O)N[C@@H](Cc1c[nH]c2ccccc12)C(=O)N[C@@H](CO)C(=O)NC(C)(C)C(=O)N[C@@H](CCCNC(=N)N)C(=O)N[C@@H](CCCCN)C(=O)N[C@@H](CCCCNC(C)=O)C(N)=O)[C@@H](C)O)C(=O)O)C(=O)O)C(=O)O

EC50 (nM), OVCAR 5 cells (cAMP): 4.6 nM
EMax, OVCAR 5 cells (cAMP): 91%
B4: peptide of SEQ ID NO: 17 (peptide)
peptide: Ac-LEGREKVRAK(Ac)I[Aib][Aib]EGK([TTDS-TTDS-γGlu-γGlu-γGlu-Palmitoyl])STWS[dK]RAK(Ac)-NH2

EC50 (nM), OVCAR 5 cells (cAMP): 6.8 nM
EMax, OVCAR 5 cells (cAMP): 88%
B9: peptide of SEQ ID NO: 16 (peptide)
peptide: Ac-LEGREKVRAK(Ac)I[Aib][Aib]EGK([TTDS-TTDS-γGlu-γGlu-γGlu-Palmitoyl])STFS[dK]RAK(Ac)-NH2

Further lines, the binder ahead of its results:

B5: peptide of SEQ ID NO: 13 (peptide)
peptide: Ac-LEGREKVRAK(Ac)I[Aib][Aib]EGK([TTDS-TTDS-TTDS-γGlu-γGlu-γGlu-Palmitoyl])STFSKRAK(Ac)-NH2
EC50 (nM), OVCAR 5 cells (cAMP): 2.12 nM
EMax, OVCAR 5 cells (cAMP): 91%

B6: peptide of SEQ ID NO: 2 (peptide)
peptide: Ac-LEGREKVRAK(Ac)I[Aib][Aib]EGK([TTDS-TTDS-TTDS-γGlu-γGlu-γGlu-Palmitoyl])STFS[Aib]RAK(Ac)-NH2
EC50 (nM), OVCAR 5 cells (cAMP): 2.4 nM
EMax, OVCAR 5 cells (cAMP): 99%

B7: peptide of SEQ ID NO: 15 (peptide)
peptide: Ac-LEGREKVRAK(Ac)I[Aib][Aib]EGK([TTDS-TTDS-TTDS-γGlu-γGlu-γGlu-Palmitoyl])STF[Aib]KRAK(Ac)-NH2
EC50 (nM), OVCAR 5 cells (cAMP): 2.1 nM
EMax, OVCAR 5 cells (cAMP): 85%

B8: peptide of SEQ ID NO: 14 (peptide)
peptide: Ac-LEGREKVRAK(Ac)I[Aib][Aib]EGK([TTDS-TTDS-TTDS-γGlu-γGlu-γGlu-Palmitoyl])STF[dS]KRAK(Ac)-NH2
EC50 (nM), OVCAR 5 cells (cAMP): 3.2 nM
EMax, OVCAR 5 cells (cAMP): 90%
